One test concerns SB-HSA tumors. In words: treatment of SB-HSA tumor-bearing mice (subcutaneous canine hemangiosarcoma xenograft). The class given is in vivo. Conditions: NOD-SCID mice injected s.c. with SB-HSA cells, vs PBS control. As for the experimental part:
For example, IL-12 was also shown, to suppress the growth of canine hemangiosarcoma in vivo in this model. IL-12 is a cytokine with pleotropic effects including suppression of angiogenesis due to in vivo inhibition of endothelial cell growth. This activity is mediated by downstream chemokines such as IP-10 and Mig, which are induced by interferon-γ in response to IL-12. […] Control mice that were injected subcutaneously with SB-HSA cells and received phosphate buffered saline developed tumors at the site of cell inoculation by the second week that progressively enlarged over a 4-week observation period.
Canine hemangiosarcoma xenografts were established in NOD-SCID mice by injection of 5×10^6 SB-HSA cells suspended in 200 μl PBS over the dorsum using a 26 gauge needle and tuberculin syringe. Mice were examined every other day until tumors were detected and measured with calipers. Animals were sacrificed when tumors reached a size of 1 cm^3.
NOD-SCID mice were injected subcutaneously over the dorsum with SB-HSA cells (5×10^6 cells/200 μl). […] Pumps were designed to deliver 6 μl/day (1 μg IL-12/day for four weeks. The mice were examined every other day for tumor development. The two largest perpendicular diameters were measured with calipers.

For test [1], the system named is angiogenesis induced by SB-HSA cells. As to the kind of experiment: corneal pocket angiogenesis assay with sponges containing SB-HSA cells. Conditions: BALB/c mice, sponges with 70,000 SB-HSA cells in cornea; continuous subcutaneous infusion by osmotic pump from day 2; examined one week after treatment; vs PBS-treated control. The class given is in vivo. The method, then:
IL-12 is a cytokine with both immunostimulatory and antiangiogenic effects. In these experiments, sponges containing 70,000 SB-HSA cells were placed into the corneas of BALB/c mice. Two days after placement of the sponges, the mice were randomized to receive either mrIL-12 or phosphate buffered saline. Each was delivered as a continuous subcutaneous infusion by subcutaneously implanted osmotic pumps. One week after treatment, mice were injected with FITC-dextran, euthanized and the corneas examined.
Polyvinyl sponges (Rippey, Eldorado Hills, Calif.) preirradiated with 2000 Gy of gamma irradiation (cesium source) were cut into 4×4×2 mm pieces, and 70,000 SB-HSA cells were introduced into the sponges. BALB/c mice were anesthetized with AVERTIN and a small surgical micropocket was created in the center of the avascular cornea. Sponges were then inserted into the micropocket. Eyes were examined for neovascularization daily using an ophthalmic microscope (Carl Zeiss Inc, Thornwood, N.Y.). […] Phase contrast and fluorescence microscopy were used to visualize the general layout of the cornea and the presence of perfused blood vessels, respectively (Muthukkaruppan, V. and Auerbach, R. Science 1979 205:1416–1418).

B1: Interleukin-12 (protein, UniProt P43431 23-215; P43432 23-335, looked up)
Interleukin-12 subunit alpha: RVIPVSGPARCLSQSRNLLKTTDDMVKTAREKLKHYSCTAEDIDHEDITRDQTSTLKTCLPLELHKNESCLATRETSSTTRGSCLPPQKTSLMMTLCLGSIYEDLKMYQTEFQAINAALQNHNHQQIILDKGMLVAIDELMQSLNHNGETLRQKPPVGEADPYRVKMKLCILLHAFSTRVVTINRVMGYLSSA
Interleukin-12 subunit beta: MWELEKDVYVVEVDWTPDAPGETVNLTCDTPEEDDITWTSDQRHGVIGSGKTLTITVKEFLDAGQYTCHKGGETLSHSHLLLHKKENGIWSTEILKNFKNKTFLKCEAPNYSGRFTCSWLVQRNMDLKFNIKSSSSSPDSRAVTCGMASLSAEKVTLDQRDYEKYSVSCQEDVTCPTAEETLPIELALEARQQNKYENYSTSFFIRDIIKPDPPKNLQMKPLKNSQVEVSWEYPDSWSTPHSYFSLKFFVRIQRKKEKMKETEEGCNQKGAFLVEKTSTEVQCKGGNVCVQAQDRYYNSSCSKWACVPCRVRS
As to B1, the growth of tumors entry in the test on SB-HSA tumors (continuous subcutaneous infusion 1 μg IL-12/day for four weeks) is “initially suppressed for two weeks followed by slower growth”. Further, the “tumor size at end of observation period” value in the test on SB-HSA tumors (continuous subcutaneous infusion 1 μg IL-12/day, end of 4-week observation period) is “significantly smaller size”. Moreover, the corneal neovascularity entry in test [1] was “significantly less corneal neovascularity”.
